Test results: patent publication US20210340530A1 (INTELLIA THERAPEUTICS, published 2021)

What was measured:
[1] = target: T1, … (RMF) WT1 peptide pulsed on target cells (HLA-02.01 positive T2 cell line; OCI-AML3); experiment: cell-based or functional assay
[2] = target: T2, … (VLD) WT1 peptide pulsed on target cells (HLA-02.01 positive T2 cell line; OCI-AML3); experiment: cell-based or functional assay
[3] = target: T3, VLD-Tetramer (pMHC tetramer with WT1 peptide …); experiment: flow cytometry, VLD-Tetramer staining of engineered T cells; TRAC + TRBC RNP
T3 construct: Staining reagent; also called VLD (Wilms' tumor antigen) tetramer; TCR specific pMHC tetramer
Procedure: (§1) Four to 12 days after RNP nucleofection, edited T cells (200 ul/200,000 cells) were collected in a 96 well round bottom plate and spun down at 500 g for 5 minutes. Cells were then resuspended in an antibody mixture containing a combination of antibodies targeting CD3, CD4, CD8, CD45RO, CD45RA, CD27, CCR7, CD62L, and/or the TCR specific pMHC tetramer or TCR specific Vbeta chain antibody. The mixture was incubated for 45 minutes at room temperature in the dark. Samples were spun down at 500 g for 5 minutes, cell pellets collected, and resuspended in 1:10,000 DAPI (Biolegend—#422801) in FACS buffer. Flow cytometry was then performed using the cytoflex according to the manufacturer's instructions.
(§2) T cells were evaluated with additional engineered TCRs for the impact of endogenous beta chains on pairing of both the inserted alpha chain and inserted beta chain. The experiment was performed as described herein except tetramer staining was used to measure MFI and the AAV inserts in Table 31 were used for transduction.

[4] = target: T1, … (RMF) WT1 peptide pulsed on target …; experiment: cell-based or functional assay; remark: listed apart in the source
[5] = target: T2, … (VLD) WT1 peptide pulsed on target …; experiment: cell-based or functional assay; remark: listed apart in the source
[6] = target: T3, VLD-Tetramer (pMHC tetramer with WT1 …); experiment: flow cytometry, VLD-Tetramer staining of engineered T cells; TRAC RNP only
Procedure: as §1, §2

[7] = target: T2, … (VLD) WT1 peptide pulsed on target …; experiment: cell-based or functional assay; remark: listed apart in the source
[8] = target: T2, … (VLD) WT1 peptide pulsed on target …; experiment: cell-based or functional assay; remark: listed apart in the source
[9] = target: T1, … (RMF) WT1 peptide pulsed on target …; experiment: cell-based or functional assay; remark: listed apart in the source
[10] = target: T2, … (VLD) WT1 peptide pulsed on target …; experiment: cell-based or functional assay; remark: listed apart in the source

B1: TCR-H (WT1-specific T-cell receptor) (TCR, V domains shown)
V domain 1: RKEVEQDPGPFNVPEGATVAFNCTYSNSASQSFFWYRQDCRKEPKLLMSVYSSGNEDGRFTAQLNRASQYISLLIRDSKLSDSATYLCVVKPDPGAGSYQLTFGKGTKLSVIP
V domain 2: NAGVTQTPKFRVLKTGQSMTLLCAQDMNHEYMYWYRQDPGMGLRLIHYSVGEGTTAKGEVPDGYNVSRLKKQNFLLGLESAAPSQTSVYFCASRGYHRLNNEQFFGPGTRLTVLE
notes: also called AV16-TCR-H
- % CD4+ CD107a+; TRAC/TRBC; 50 nM RMF; T2 [1]: 3.7%
- % CD8+ CD107a+; TRAC/TRBC; 50 nM RMF; T2 [1]: 2.64%
- % CD4+ CD107a+; TRAC/TRBC; 0 nM VLD; T2 [2]: 3.42%
- % CD4+ CD107a+; TRAC/TRBC; 0.005 nM VLD; T2 [2]: 3.63%
- % CD4+ CD107a+; TRAC/TRBC; 0.05 nM VLD; T2 [2]: 4.48%
- % CD4+ CD107a+; TRAC/TRBC; 0.5 nM VLD; T2 [2]: 6.82%
- % CD4+ CD107a+; TRAC/TRBC; 5 nM VLD; T2 [2]: 8.09%
- % CD4+ CD107a+; TRAC/TRBC; 50 nM VLD; T2 [2]: 8.28%
- % CD8+ CD107a+; TRAC/TRBC; 0 nM VLD; T2 [2]: 2.29%
- % CD8+ CD107a+; TRAC/TRBC; 0.005 nM VLD; T2 [2]: 5.05%
- % CD8+ CD107a+; TRAC/TRBC; 0.05 nM VLD; T2 [2]: 23.6%
- % CD8+ CD107a+; TRAC/TRBC; 0.5 nM VLD; T2 [2]: 45.6%
- % CD8+ CD107a+; TRAC/TRBC; 5 nM VLD; T2 [2]: 60.7%
- % CD8+ CD107a+; TRAC/TRBC; 50 nM VLD; T2 [2]: 70.5%
- Mean % Tetramer+ (CD4+) [3]: 80.2%
- Mean % Tetramer+ (CD8+) [3]: 77.1%
- Mean Tetramer MFI (CD4+) [3]: 131000 MFI
- Mean Tetramer MFI (CD8+) [3]: 139000 MFI
- % CD4+ TNFa+ IFNg+; TRAC/TRBC; 50 nM RMF; T2 [4]: 2.9%
- % CD8+ TNFa+ IFNg+; TRAC/TRBC; 50 nM RMF; T2 [4]: 0.6%
- % CD4+ TNFa+ IFNg+; TRAC/TRBC; 0 nM VLD; T2 [5]: 3.1%
- % CD4+ TNFa+ IFNg+; TRAC/TRBC; 0.005 nM VLD; T2 [5]: 2.1%
- % CD4+ TNFa+ IFNg+; TRAC/TRBC; 0.05 nM VLD; T2 [5]: 3%
- % CD4+ TNFa+ IFNg+; TRAC/TRBC; 0.5 nM VLD; T2 [5]: 4.4%
- % CD4+ TNFa+ IFNg+; TRAC/TRBC; 5 nM VLD; T2 [5]: 6%
- % CD4+ TNFa+ IFNg+; TRAC/TRBC; 50 nM VLD; T2 [5]: 6.9%
- % CD8+ TNFa+ IFNg+; TRAC/TRBC; 0 nM VLD; T2 [5]: 0.5%
- % CD8+ TNFa+ IFNg+; TRAC/TRBC; 0.005 nM VLD; T2 [5]: 3.7%
- % CD8+ TNFa+ IFNg+; TRAC/TRBC; 0.05 nM VLD; T2 [5]: 27.1%
- % CD8+ TNFa+ IFNg+; TRAC/TRBC; 0.5 nM VLD; T2 [5]: 48.7%
- % CD8+ TNFa+ IFNg+; TRAC/TRBC; 5 nM VLD; T2 [5]: 67.5%
- % CD8+ TNFa+ IFNg+; TRAC/TRBC; 50 nM VLD; T2 [5]: 79.2%
- Mean % Tetramer+ (CD4+) [6]: 71.7%
- Mean % Tetramer+ (CD8+) [6]: 68.8%
- Mean Tetramer MFI (CD4+) [6]: 64300 MFI
- Mean Tetramer MFI (CD8+) [6]: 75200 MFI
- IL2 release; TRAC only; 0 nM VLD; T2 [7]: 102 pg/mL
- IL2 release; TRAC only; 0.005 nM VLD; T2 [7]: 44 pg/mL
- IL2 release; TRAC only; 0.05 nM VLD; T2 [7]: 2 pg/mL
- IL2 release; TRAC only; 0.5 nM VLD; T2 [7]: 23 pg/mL
- IL2 release; TRAC only; 5 nM VLD; T2 [7]: 175 pg/mL
- IL2 release; TRAC only; 50 nM VLD; T2 [7]: 111 pg/mL
- IL2 release; TRAC only; 500 nM VLD; T2 [7]: 387 pg/mL
- IL2 release; TRAC/TRBC; 0 nM VLD; T2 [7]: 17 pg/mL
- IL2 release; TRAC/TRBC; 0.005 nM VLD; T2 [7]: 15 pg/mL
- IL2 release; TRAC/TRBC; 0.05 nM VLD; T2 [7]: 40 pg/mL
- IL2 release; TRAC/TRBC; 0.5 nM VLD; T2 [7]: 17 pg/mL
- IL2 release; TRAC/TRBC; 5 nM VLD; T2 [7]: 30 pg/mL
- IL2 release; TRAC/TRBC; 50 nM VLD; T2 [7]: 286 pg/mL
- IL2 release; TRAC/TRBC; 500 nM VLD; T2 [7]: 455 pg/mL
- IFN-gamma release; TRAC/TRBC; 50 nM VLD; T2 [8]: 16100
- IFN-gamma release; TRAC/TRBC; 500 nM VLD; T2 [8]: 24400
- IFN-gamma release; only TRAC; 50 nM VLD; T2 [8]: 15900
- IFN-gamma release; only TRAC; 500 nM VLD; T2 [8]: 24300
- Caspase 3/7 integrated intensity; TRAC only; 500 nM RMF; T2 [9]: 4190
- Caspase 3/7 integrated intensity; TRAC/TRBC; 500 nM RMF; T2 [9]: 3890
- Caspase 3/7 integrated intensity; TRAC only; 0 nM VLD; T2 [10]: 6560
- Caspase 3/7 integrated intensity; TRAC only; 0.005 nM VLD; T2 [10]: 7650
- Caspase 3/7 integrated intensity; TRAC only; 0.05 nM VLD; T2 [10]: 23600
- Caspase 3/7 integrated intensity; TRAC only; 0.5 nM VLD; T2 [10]: 550000
- Caspase 3/7 integrated intensity; TRAC only; 5 nM VLD; T2 [10]: 992000
- Caspase 3/7 integrated intensity; TRAC only; 50 nM VLD; T2 [10]: 1.08e+06
- Caspase 3/7 integrated intensity; TRAC only; 500 nM VLD; T2 [10]: 1.18e+06
- Caspase 3/7 integrated intensity; TRAC/TRBC; 0 nM VLD; T2 [10]: 7390
- Caspase 3/7 integrated intensity; TRAC/TRBC; 0.005 nM VLD; T2 [10]: 9820
- Caspase 3/7 integrated intensity; TRAC/TRBC; 0.05 nM VLD; T2 [10]: 32400
- Caspase 3/7 integrated intensity; TRAC/TRBC; 0.5 nM VLD; T2 [10]: 628000
- Caspase 3/7 integrated intensity; TRAC/TRBC; 5 nM VLD; T2 [10]: 984000
- Caspase 3/7 integrated intensity; TRAC/TRBC; 50 nM VLD; T2 [10]: 1.08e+06
- Caspase 3/7 integrated intensity; TRAC/TRBC; 500 nM VLD; T2 [10]: 1.18e+06
